Results: paper PMC5799255, “Histone H5 is a potent Antimicrobial Agent and a template for novel Antimicrobial Peptides” (Scientific Reports, 2018)

Experiments:
Assay type in all cases: cell-based
[1] = test system: Salmonella typhimurium (ATCC 1535); assay: Broth microdilution assay (MIC/MBC), planktonic bacteria
Protocol: (§1) Antimicrobial activity of histone H5 against a variety of Gram-positive and Gram-negative planktonic bacteria was evaluated using a broth microdilution assay. The average minimum inhibitory concentration (MIC) and minimum bactericidal concentration (MBC) values (mean ± SD, n = 3) for six Gram-positive and four Gram-negative bacterial species are shown in Table 2. […] E. faecalis was the least susceptible to histone H5 inhibition, requiring over 32 µg/mL for complete bacterial growth inhibition which was the highest histone H5 concentration tested.
(§2) The bacterial strains tested in this study were Gram-positive bacteria (Bacillus cereus (ATCC 11778), methicillin-sensitive Staphylococcus aureus (ATCC 6538), methicillin-resistant Staphylococcus aureus (ATCC 29247), Listeria monocytogenes (ATCC 19112), Enterococcus faecalis (clinical isolate) and vancomycin-resistant Enterococcus (ATCC 51299)) and Gram-negative bacteria Escherichia coli K12 (ATCC 29425), Escherichia coli (O157:H7), Pseudomonas aeruginosa (ATCC 15442) and Salmonella typhimurium (ATCC 1535)). Bacterial colonies from glycerol stocks were plated on LB agar plates (BHI agar plates for L. monocytogenes) and incubated overnight at 37 °C. Single colonies from these plates were grown in 3 mL of LB broth (BHI broth for L. monocytogenes) overnight at 37 °C and shaken at 250 rpm. […] The bacterial suspension was pelleted at 3,000 × g, 4 °C for 10 minutes and washed with PBS (twice), and then adjusted to 10^5–10^6 CFUs/mL in PBS.
(§3) Supplementary Information
(§4) Broth microdilution assay
(§5) The protocol for this step of the project was based on established methods22. Histone H5 or the peptides were dissolved in sterile water, pH 7.4, serially two-fold diluted and aliquoted in a 1:1 (v/v) ratio with bacteria. Kanamycin or ampicillin served as a positive control for inhibition, and sterile water (pH 7.4) as a negative control for inhibition. The tubes were then incubated for 3 hours at 37°C an d shaken at 200 rpm. Next, 100 µL of each tube and 100µL of LB broth (BHI broth for L. monocytogenes) was plated in wells of a 96-well microplate. The microplate was incubated in the EON microplate reader overnight at 206 oscillations/min and at 37°C. During this period, the EON microplate spectrophotometer and Gen5 data analysis software (BioTek, Winooski, VT, USA) were used to monitor the growth of bacteria by measuring the optical density at 600 nm every 30 minutes for 18 hours. The lowest protein concentration without visible bacterial growth was designated as the minimum inhibitory concentration (MIC). Bacteria (10 µL) from the wells at MIC, MIC x 2 and MIC x 3 concentrations of H5 were plated on LB agar (BHI agar for L. monocytogenes) and incubated at 37°C for 18 hours. The lowest concentration of histone H5 without a single colony was designated as the minimum bactericidal concentration (MBC). […]

[2] = test system: methicillin-resistant Staphylococcus aureus (ATCC 29247); assay: as above; conditions: mean ± SD, n = 3
Protocol: as §1, §2, §3, §4, §5

[3] = test system: vancomycin-resistant Enterococcus (ATCC 51299); assay: as above; conditions: mean ± SD, n = 3
Protocol: as §1, §2, §3, §4, §5

[4] = test system: methicillin-sensitive Staphylococcus aureus (ATCC 6538); assay: as above; conditions: mean ± SD, n = 3
Protocol: as §1, §2, §3, §4, §5

[5] = test system: Enterococcus faecalis (clinical isolate); assay: as above; conditions: mean ± SD, n = 3
Protocol: as §1, §2, §3, §4, §5

[6] = test system: Escherichia coli K12 (ATCC 29425); assay: as above
Protocol: as §1, §2, §3, §4, §5

[7] = test system: Bacillus cereus (ATCC 11778); assay: as above; conditions: mean ± SD, n = 3
Protocol: as §1, §2, §3, §4, §5

[8] = test system: Pseudomonas aeruginosa; assay: Scanning electron microscopy of treated planktonic bacteria; conditions: 4 µg/mL, 3-hour incubation; three independent trials, each in duplicate
Protocol: (§6) In order to study the effect of histone H5 on bacterial membranes, Gram-positive and Gram-negative planktonic bacteria incubated with histone H5 were visualized by scanning electron microscopy (SEM). Representative SEM images of Listeria monocytogenes and Pseudomonas aeruginosa untreated (H2O control) and histone H5-treated bacterial cells are shown in Fig. 3. […] Similar observations were made in each of three independent trials, each performed in duplicate.
(§7) The same protocols as described in the preparation of the bacterial suspension and the broth microdilution assay were followed to prepare the histone H5-treated bacteria and the untreated control cells for SEM. After a 3-hour incubation of the 1:1 (v/v) ratio of planktonic bacteria and histone H5 (or 1:1 (v/v) ratio of planktonic bacteria and sterile H2O for the untreated control cells), 100 µL of this solution was filtered directly through an Isopore™ polycarbonate membrane filter ([…], EMD Millipore Co Cork, IRL) which was placed in a Swinny Stainless Steel 13 mm Filter Holder (EMD Millipore, MA, USA) connected to vacuum suction. The filter was then removed and placed onto a Kimwipe™ (Kimberly-Clark™ Professional Kimtech Science™) in a glass cell culture dish. The filters were fixed with 5% glutaraldehyde in 0.1 M sodium cacodylate, pH 7.5 (VWR, Radnor, PA, USA) overnight at 4 °C. […]

[9] = test system: Listeria monocytogenes; assay: as above; conditions: 4 µg/mL, 3-hour incubation; three independent trials, each in duplicate
Protocol: as §6, §7

[10] = broth microdilution, 3 h at 37 °C, then OD600 growth 18 h in LB broth, mean ± SD, n = 3
[11] = plated on LB agar, 37 °C 18 h, lowest concentration without a single colony, mean ± SD, n = 3
[12] = value in the figure, representative of three independent trials, each in triplicate
[13] = broth microdilution, 3 h at 37 °C, then OD600 growth 18 h in LB broth
[14] = plated on LB agar, 37 °C 18 h, lowest concentration without a single colony

B1: histone H5: erythrocyte-specific linker histone purified from chicken erythrocytes, 190 amino acids (protein, UniProt P02259 2-190, looked up)
Histone H5: TESLVLSPAPAKPKRVKASRRSASHPTYSEMIAAAIRAEKSRGGSSRQSIQKYIKSHYKVGHNADLQIKLSIRRLLAAGVLKQTKGVGASGSFRLAKSDKAKRSPGKKKKAVRRSTSPKKAARPRKARSPAKKPKATARKARKKSRASPKKAKKPKTVKAKSRKASKAKKVKRSKPRAKSGARKSPKKK
MIC [1, 10]: 1.9 ± 1.8 µg/mL
MBC [1, 11]: 1.9 ± 1.8 µg/mL
MIC [1, 12]: 4 µg/mL
MIC [2, 13]: 2.4 ± 0.8 µg/mL
MBC [2, 14]: 2.7 ± 1.2 µg/mL
MIC [3, 13]: 4 ± 1.2 µg/mL
MBC [3, 14]: 4.4 ± 1.9 µg/mL
MIC [4, 13]: 3.8 ± 0.4 µg/mL
MBC [4, 14]: 4 ± 0 µg/mL
MIC ([5]; broth microdilution, 3 h at 37 °C, then OD600 growth 18 h in LB broth, highest concentration tested 32 µg/mL): >32 µg/mL
MBC [5, 14]: >32 µg/mL
MIC [6, 10]: 4.9 ± 1.5 µg/mL
MBC [6, 11]: 6.7 ± 2.3 µg/mL
MIC [6, 12]: 6.7 µg/mL
MIC ([7]; broth microdilution, 3 h at 37 °C with bacteria 1:1 (v/v), then OD600 growth 18 h in LB broth, lowest concentration without visible growth): 3.8 ± 1.7 µg/mL
MBC ([7]; wells at MIC, MIC x 2, MIC x 3 plated on LB agar, 37 °C 18 h, lowest concentration without a single colony): 3.8 ± 1.7 µg/mL
bacterial cell morphology by SEM [8]: indentations in the bacterial membrane, small pore formation
bacterial cell morphology by SEM [9]: Multiple indentations in the bacterial membrane, membrane wrinkling and pronounced deformations
